Reference: article PMC12043044, “Synthesis of Selectively ^13C/^2H/^15N‐ Labeled Arginine to Probe Protein Conformation and Interaction by NMR Spectroscopy” (Chemistry (Weinheim an Der Bergstrasse, Germany), 2025)

Molecular target: T1, human ubiquitin (human, UniProt P0CG48 1-76)
T1 construct: ubiquitin, human, the 76 amino acid-long protein (cut product of the polyubiquitin or ubiquitin-ribosomal fusion precursors); Isotope-labelled only (uniformly 15N, arginines 13Cdelta/2Hbeta,gamma/15Nepsilon); No tag is mentioned and the purification uses none; also called arginine-labeled ubiquitin; source: E. coli BL21(DE3), pET-21a(+), purified (heat shock at 70 °C, anion exchange, size …)
Assay: NMR titration; 70 µM arginine-labeled (U-15N, 13Cδ/2Hβγ/15Nε Arg) ubiquitin titrated with increasing amounts of unlabeled Sla1 SH3-3; 50 mM Tris-HCl, pH 8.0, 25 °C; 1H-13C HSQC and 1H-15N SOFAST-HMQC, chemical shift perturbations
Conditions: both partners purified

B1: third SH3 domain (SH3-3) of yeast endocytic protein Sla1 (domain or fragment)
chain: MASKSKKRGIVQYDFMAESQDELTIKSGDKVYILDDKKSKDWWMCQLVDSGKSGLVPAQFIEPVRDKKHTE
notes: Sla1, yeast, third SH3 domain (SH3-3); residues E367, E371 and F409 are named as lying in the domain (PDB 2JT4); PDB 2JT4 is the cited NMR model of the complex with ubiquitin and may hold other limits; Plasmid bought from GeneCust; No removal of the tag is described; also called Sla1 SH3-3; source: cell-free expression (E. coli S15 extract, pIVEX2.3d vector), purified (HisTrap FF)
binding result: binds
